The numbers were not newly measured in publication PMC5530503, which cites them from elsewhere.

The target in the data set is VEGFR2 (Homo sapiens) (UniProt P35968).
Chain of UniProt P35968 (P35968 20-1356): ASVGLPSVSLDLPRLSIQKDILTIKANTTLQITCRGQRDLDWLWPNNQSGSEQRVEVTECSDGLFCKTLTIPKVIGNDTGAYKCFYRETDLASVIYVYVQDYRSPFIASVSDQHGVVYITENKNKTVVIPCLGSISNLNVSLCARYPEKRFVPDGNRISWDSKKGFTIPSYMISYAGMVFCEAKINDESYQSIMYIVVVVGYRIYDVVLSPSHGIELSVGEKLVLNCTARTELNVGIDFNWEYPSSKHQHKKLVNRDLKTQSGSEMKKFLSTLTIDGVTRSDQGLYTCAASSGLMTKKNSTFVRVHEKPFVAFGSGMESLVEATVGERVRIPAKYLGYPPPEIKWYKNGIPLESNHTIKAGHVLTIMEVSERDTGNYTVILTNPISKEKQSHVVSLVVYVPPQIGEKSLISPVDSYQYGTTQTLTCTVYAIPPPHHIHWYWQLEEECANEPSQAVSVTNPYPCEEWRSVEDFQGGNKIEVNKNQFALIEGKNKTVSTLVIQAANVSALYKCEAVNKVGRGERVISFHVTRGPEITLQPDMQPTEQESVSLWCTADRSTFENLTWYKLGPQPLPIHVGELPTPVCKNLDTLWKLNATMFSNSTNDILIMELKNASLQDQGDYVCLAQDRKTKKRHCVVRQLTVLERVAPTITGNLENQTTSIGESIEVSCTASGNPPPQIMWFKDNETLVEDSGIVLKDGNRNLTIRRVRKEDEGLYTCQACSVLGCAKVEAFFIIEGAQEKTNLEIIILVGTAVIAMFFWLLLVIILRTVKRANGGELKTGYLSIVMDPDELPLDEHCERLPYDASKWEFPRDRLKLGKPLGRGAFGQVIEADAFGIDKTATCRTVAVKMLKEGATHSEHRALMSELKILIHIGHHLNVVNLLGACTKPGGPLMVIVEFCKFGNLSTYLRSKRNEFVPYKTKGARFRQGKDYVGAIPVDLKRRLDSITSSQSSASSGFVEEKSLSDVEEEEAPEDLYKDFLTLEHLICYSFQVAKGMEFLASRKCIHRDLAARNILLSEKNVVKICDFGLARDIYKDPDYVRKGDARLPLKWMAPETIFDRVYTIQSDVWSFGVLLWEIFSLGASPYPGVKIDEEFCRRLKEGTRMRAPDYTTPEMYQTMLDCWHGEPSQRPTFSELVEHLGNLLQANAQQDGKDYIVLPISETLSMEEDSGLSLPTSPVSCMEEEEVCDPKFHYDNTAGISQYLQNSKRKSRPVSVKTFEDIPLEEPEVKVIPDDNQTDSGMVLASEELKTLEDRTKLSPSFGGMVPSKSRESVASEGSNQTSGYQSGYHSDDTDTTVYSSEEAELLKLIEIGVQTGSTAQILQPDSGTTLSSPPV

With VEGF (from UniProt P15692), the Kd was 0.037 nM.

What is called Kd is the constant that tells how readily two partners part at equilibrium.
